Measured values reported in US20220402983A1 (Janssen / Centocor, published 2022).
*1 amine or outer side, *2 acyl side, *3 side chain or, on linkers, in order; H or OH if unused. Bridges are numbered along the chain shown (N, C = ends). [ ]: non-standard residue; d: D form. The star is where a group is joined. (N-(imidazol-2-yl)methyl)Asn = N-(imidazol-2-yl)methyl-asparagine, O=C(C[C@H](N[*:1])C(=O)[*:2])NCc1ncc[nH]1; (N-(3-aminophenyl))Asn = N-(3-aminophenyl)-asparagine, O=C(C[C@H](N[*:1])C(=O)[*:2])Nc1cccc(N[*:3])c1; (N-(3-Pyz))Asn = N-pyrazol-3-yl-asparagine, O=C(C[C@H](N[*:1])C(=O)[*:2])Nc1cc[nH]n1; Trp(7-Me) = Cc1cccc2c(C[C@H](N)C(=O)O)c[nH]c12; (N-Pyr)Asn = N-pyrrolidin-3-yl-asparagine; (N-Pip)Asn = N-piperidin-4-yl-asparagine; 2Nal = N[C@@H](Cc1ccc2ccccc2c1)C(=O)O; AEF = NCCOc1ccc(C[C@H](N)C(=O)O)cc1; αMeY = C[C@](N)(Cc1ccc(O)cc1)C(=O)O; αMeF = C[C@](N)(Cc1ccccc1)C(=O)O; αMeE = C[C@](N)(CCC(=O)O)C(=O)O; Cit = NC(=O)NCCC[C@H](N)C(=O)O; αMeL = CC(C)C[C@](C)(N)C(=O)O; Pen = CC(C)(S)[C@H](N)C(=O)O; αMeK = C[C@](N)(CCCCN)C(=O)O; Thp = NC1(C(=O)O)CCOCC1; Abu = CC[C@H](N)C(=O)O; Piv = CC(C)(C)C(=O)*; Tfa = O=C(C(F)(F)F)*

B1: Compound No. 149 (peptide)
peptide: Ac-[dR][Pen]NT[Trp(7-Me)][Cit][Pen][AEF][2Nal][αMeL]EN[αMeF]-NH2
modifications: disulfide 2-7
SMILES: CC(=O)N[C@H](CCCNC(=N)N)C(=O)N[C@@H]1C(=O)N[C@@H](CC(N)=O)C(=O)N[C@@H]([C@@H](C)O)C(=O)N[C@@H](Cc2c[nH]c3c(C)cccc23)C(=O)N[C@@H](CCCNC(N)=O)C(=O)N[C@H](C(=O)N[C@@H](Cc2ccc(OCCN)cc2)C(=O)N[C@@H](Cc2ccc3ccccc3c2)C(=O)N[C@@](C)(CC(C)C)C(=O)N[C@@H](CCC(=O)O)C(=O)N[C@@H](CC(N)=O)C(=O)N[C@@](C)(Cc2ccccc2)C(N)=O)C(C)(C)SSC1(C)C
B2: Compound No. 142 (peptide)
peptide: PentCO-[dR][Pen]NT[Trp(7-Me)]K(Ac)[Pen][AEF][2Nal][Thp]EN[αMeF]-NH2
modifications: disulfide 2-7
B3: Compound No. 150 (peptide)
peptide: Ac-[dR][Pen]NT[Trp(7-Me)]K(Ac)[Pen][AEF][2Nal][Thp][αMeE]N[αMeY]-NH2
modifications: disulfide 2-7
SMILES: CC(=O)NCCCC[C@@H]1NC(=O)[C@H](Cc2c[nH]c3c(C)cccc23)NC(=O)[C@H]([C@@H](C)O)NC(=O)[C@H](CC(N)=O)NC(=O)[C@@H](NC(=O)[C@@H](CCCNC(=N)N)NC(C)=O)C(C)(C)SSC(C)(C)[C@@H](C(=O)N[C@@H](Cc2ccc(OCCN)cc2)C(=O)N[C@@H](Cc2ccc3ccccc3c2)C(=O)NC2(C(=O)N[C@@](C)(CCC(=O)O)C(=O)N[C@@H](CC(N)=O)C(=O)N[C@@](C)(Cc3ccc(O)cc3)C(N)=O)CCOCC2)NC1=O
B4: Compound No. 141 (peptide)
peptide: Ac-[Pen]NT[Trp(7-Me)]K(Ac)[Pen][AEF][2Nal][Thp]K(Piv)N[Thp]-NH2
modifications: disulfide 1-6
SMILES: CC(=O)NCCCC[C@@H]1NC(=O)[C@H](Cc2c[nH]c3c(C)cccc23)NC(=O)[C@H]([C@@H](C)O)NC(=O)[C@H](CC(N)=O)NC(=O)[C@@H](NC(C)=O)C(C)(C)SSC(C)(C)[C@@H](C(=O)N[C@@H](Cc2ccc(OCCN)cc2)C(=O)N[C@@H](Cc2ccc3ccccc3c2)C(=O)NC2(C(=O)N[C@@H](CCCCNC(=O)C(C)(C)C)C(=O)N[C@@H](CC(N)=O)C(=O)NC3(C(N)=O)CCOCC3)CCOCC2)NC1=O
B5: Compound No. 140 (peptide)
peptide: Ac-[Pen]NT[Trp(7-Me)]K(Ac)[Pen][AEF][2Nal][Thp]K(Tfa)N[Thp]-NH2
modifications: disulfide 1-6
SMILES: CC(=O)NCCCC[C@@H]1NC(=O)[C@H](Cc2c[nH]c3c(C)cccc23)NC(=O)[C@H]([C@@H](C)O)NC(=O)[C@H](CC(N)=O)NC(=O)[C@@H](NC(C)=O)C(C)(C)SSC(C)(C)[C@@H](C(=O)N[C@@H](Cc2ccc(OCCN)cc2)C(=O)N[C@@H](Cc2ccc3ccccc3c2)C(=O)NC2(C(=O)N[C@@H](CCCCNC(=O)C(F)(F)F)C(=O)N[C@@H](CC(N)=O)C(=O)NC3(C(N)=O)CCOCC3)CCOCC2)NC1=O
B6: Compound No. 201 (peptide)
peptide: Ac-[dR][Abu]QT[Trp(7-Me)]K(Ac)C[AEF][2Nal][αMeK]K(Ac)N[αMeF]-NH2
modifications: thioether 2-7
B7: Compound No. 138 (peptide)
peptide: Ac-[Pen]NT[Trp(7-Me)]K(Ac)[Pen][AEF][2Nal][Thp]K(Tfa)N[αMeF]-NH2
modifications: disulfide 1-6
SMILES: CC(=O)NCCCC[C@@H]1NC(=O)[C@H](Cc2c[nH]c3c(C)cccc23)NC(=O)[C@H]([C@@H](C)O)NC(=O)[C@H](CC(N)=O)NC(=O)[C@@H](NC(C)=O)C(C)(C)SSC(C)(C)[C@@H](C(=O)N[C@@H](Cc2ccc(OCCN)cc2)C(=O)N[C@@H](Cc2ccc3ccccc3c2)C(=O)NC2(C(=O)N[C@@H](CCCCNC(=O)C(F)(F)F)C(=O)N[C@@H](CC(N)=O)C(=O)N[C@@](C)(Cc3ccccc3)C(N)=O)CCOCC2)NC1=O
B8: Compound No. 146 (peptide)
peptide: FlagTag-[dR][Pen]NT[Trp(7-Me)]K(Ac)[Pen][AEF][2Nal][Thp]EN[Thp]-NH2
modifications: disulfide 2-7; also: FlagTag sequence not given here
B9: Compound No. 139 (peptide)
peptide: Ac-[Pen]NT[Trp(7-Me)]K(Ac)[Pen][AEF][2Nal][Thp]K(Piv)N[αMeF]-NH2
modifications: disulfide 1-6
SMILES: CC(=O)NCCCC[C@@H]1NC(=O)[C@H](Cc2c[nH]c3c(C)cccc23)NC(=O)[C@H]([C@@H](C)O)NC(=O)[C@H](CC(N)=O)NC(=O)[C@@H](NC(C)=O)C(C)(C)SSC(C)(C)[C@@H](C(=O)N[C@@H](Cc2ccc(OCCN)cc2)C(=O)N[C@@H](Cc2ccc3ccccc3c2)C(=O)NC2(C(=O)N[C@@H](CCCCNC(=O)C(C)(C)C)C(=O)N[C@@H](CC(N)=O)C(=O)N[C@@](C)(Cc3ccccc3)C(N)=O)CCOCC2)NC1=O
B10: Compound No. 137 (peptide)
peptide: Ac-[dR][Pen]QTWQ[Pen][AEF][2Nal][Thp]EN[(N-(imidazol-2-yl)methyl)Asn]-NH2
modifications: disulfide 2-7
SMILES: CC(=O)N[C@H](CCCNC(=N)N)C(=O)N[C@@H]1C(=O)N[C@@H](CCC(N)=O)C(=O)N[C@@H]([C@@H](C)O)C(=O)N[C@@H](Cc2c[nH]c3ccccc23)C(=O)N[C@@H](CCC(N)=O)C(=O)N[C@H](C(=O)N[C@@H](Cc2ccc(OCCN)cc2)C(=O)N[C@@H](Cc2ccc3ccccc3c2)C(=O)NC2(C(=O)N[C@@H](CCC(=O)O)C(=O)N[C@@H](CC(N)=O)C(=O)N[C@@H](CC(=O)NCc3ncc[nH]3)C(N)=O)CCOCC2)C(C)(C)SSC1(C)C
B11: Compound No. 124 (peptide)
peptide: Ac-[dR][Pen]NT[Trp(7-Me)]K(Ac)[Pen][AEF][2Nal][Thp]EN[αMeF]-NH2
modifications: disulfide 2-7
SMILES: CC(=O)NCCCC[C@@H]1NC(=O)[C@H](Cc2c[nH]c3c(C)cccc23)NC(=O)[C@H]([C@@H](C)O)NC(=O)[C@H](CC(N)=O)NC(=O)[C@@H](NC(=O)[C@@H](CCCNC(=N)N)NC(C)=O)C(C)(C)SSC(C)(C)[C@@H](C(=O)N[C@@H](Cc2ccc(OCCN)cc2)C(=O)N[C@@H](Cc2ccc3ccccc3c2)C(=O)NC2(C(=O)N[C@@H](CCC(=O)O)C(=O)N[C@@H](CC(N)=O)C(=O)N[C@@](C)(Cc3ccccc3)C(N)=O)CCOCC2)NC1=O
B12: Compound No. 128 (peptide)
peptide: Ac-[dR][Pen]QTWQ[Pen][AEF][2Nal][Thp]EN[(N-Pyr)Asn]-NH2
modifications: disulfide 2-7
B13: Compound No. 127 (peptide)
peptide: Ac-[dR][Pen]QTWQ[Pen][AEF][2Nal][Thp]EN[(N-Pip)Asn]-NH2
modifications: disulfide 2-7
B14: Compound No. 151 (peptide)
peptide: Ac-[Pen]NT[Trp(7-Me)]K(Ac)[Pen][AEF][2Nal][αMeK]K(Ac)N[αMeY]-NH2
modifications: disulfide 1-6
SMILES: CC(=O)NCCCC[C@@H]1NC(=O)[C@H](Cc2c[nH]c3c(C)cccc23)NC(=O)[C@H]([C@@H](C)O)NC(=O)[C@H](CC(N)=O)NC(=O)[C@@H](NC(C)=O)C(C)(C)SSC(C)(C)[C@@H](C(=O)N[C@@H](Cc2ccc(OCCN)cc2)C(=O)N[C@@H](Cc2ccc3ccccc3c2)C(=O)N[C@@](C)(CCCCN)C(=O)N[C@@H](CCCCNC(C)=O)C(=O)N[C@@H](CC(N)=O)C(=O)N[C@@](C)(Cc2ccc(O)cc2)C(N)=O)NC1=O
B15: Compound No. 130 (peptide)
peptide: Ac-[dR][Pen]QTWQ[Pen][AEF][2Nal][Thp]EN[(N-(3-aminophenyl))Asn]-NH2
modifications: disulfide 2-7
SMILES: CC(=O)N[C@H](CCCNC(=N)N)C(=O)N[C@@H]1C(=O)N[C@@H](CCC(N)=O)C(=O)N[C@@H]([C@@H](C)O)C(=O)N[C@@H](Cc2c[nH]c3ccccc23)C(=O)N[C@@H](CCC(N)=O)C(=O)N[C@H](C(=O)N[C@@H](Cc2ccc(OCCN)cc2)C(=O)N[C@@H](Cc2ccc3ccccc3c2)C(=O)NC2(C(=O)N[C@@H](CCC(=O)O)C(=O)N[C@@H](CC(N)=O)C(=O)N[C@@H](CC(=O)Nc3cccc(N)c3)C(N)=O)CCOCC2)C(C)(C)SSC1(C)C
B16: Compound No. 133 (peptide)
peptide: Ac-[dR][Pen]QTWQ[Pen][AEF][2Nal][Thp]EN[(N-(3-Pyz))Asn]-NH2
modifications: disulfide 2-7
SMILES: CC(=O)N[C@H](CCCNC(=N)N)C(=O)N[C@@H]1C(=O)N[C@@H](CCC(N)=O)C(=O)N[C@@H]([C@@H](C)O)C(=O)N[C@@H](Cc2c[nH]c3ccccc23)C(=O)N[C@@H](CCC(N)=O)C(=O)N[C@H](C(=O)N[C@@H](Cc2ccc(OCCN)cc2)C(=O)N[C@@H](Cc2ccc3ccccc3c2)C(=O)NC2(C(=O)N[C@@H](CCC(=O)O)C(=O)N[C@@H](CC(N)=O)C(=O)N[C@@H](CC(=O)Nc3cc[nH]n3)C(N)=O)CCOCC2)C(C)(C)SSC1(C)C

These binders were tested against T1, human IL-23R (interleukin-23 receptor) (human, UniProt Q5VWK5 24-629) (assay: cell-based or functional assay).
T1 sequence (looked up): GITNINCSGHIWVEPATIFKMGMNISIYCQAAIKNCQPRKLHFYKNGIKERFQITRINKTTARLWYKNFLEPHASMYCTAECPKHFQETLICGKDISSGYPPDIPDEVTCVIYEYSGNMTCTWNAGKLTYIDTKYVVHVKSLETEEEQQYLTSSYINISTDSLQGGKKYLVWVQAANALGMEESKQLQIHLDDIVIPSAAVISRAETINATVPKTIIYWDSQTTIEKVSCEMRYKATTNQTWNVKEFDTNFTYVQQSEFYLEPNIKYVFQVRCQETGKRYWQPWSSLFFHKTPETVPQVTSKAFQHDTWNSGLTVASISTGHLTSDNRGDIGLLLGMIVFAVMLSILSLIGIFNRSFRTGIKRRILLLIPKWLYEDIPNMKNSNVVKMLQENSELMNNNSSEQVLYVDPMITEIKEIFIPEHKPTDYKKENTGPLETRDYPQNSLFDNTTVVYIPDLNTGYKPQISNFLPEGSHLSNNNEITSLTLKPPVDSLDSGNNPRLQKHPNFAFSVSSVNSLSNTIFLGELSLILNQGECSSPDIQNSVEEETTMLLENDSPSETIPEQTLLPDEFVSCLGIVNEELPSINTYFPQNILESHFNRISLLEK

In order of falling “PBMC pSTAT3 IC50 (nM)” value:
1. B12  51 nM
2. B13  48 nM
3. B16  21 nM
4. B10  14 nM
5. B11  11 nM
6. B15  9.2 nM
7. B8  8.9 nM
8. B7  7.6 nM
9. B9  6.6 nM
10. B14  5.7 nM
11. B2  4.9 nM
12. B3  4.7 nM
13. B4  3.7 nM
14. B5  2.6 nM
15. B1  2.3 nM

With B6 the “pStat3 HTRF (nM), IC50, DB cells IL23R pSTAT3 cell assay” value was 12.7 nM.
